Assay results as given in patent US20220047716A1 (SUTRO BIOPHARMA, published 2022).

Biological target: human folate receptor alpha (hFOLR1) (human, UniProt P15328 25-234)
Experiment: cell-based or functional assay

Chain of human folate receptor alpha (hFOLR1) (P15328 25-234 limits assumed): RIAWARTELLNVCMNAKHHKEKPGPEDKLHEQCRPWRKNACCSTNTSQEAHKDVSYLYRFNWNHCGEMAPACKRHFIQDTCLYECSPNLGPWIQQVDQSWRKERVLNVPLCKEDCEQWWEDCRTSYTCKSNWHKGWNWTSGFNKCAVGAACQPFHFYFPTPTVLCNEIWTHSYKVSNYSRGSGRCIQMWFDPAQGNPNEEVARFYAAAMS

| Binder | Igrov 2° antibody cell killing EC50 | Igrov 2° antibody cell killing Span | KB 2° antibody cell killing Span | KB 2° antibody cell killing EC50 |
| --- | --- | --- | --- | --- |
| SRP1848-E06 (antibody, V domains shown) VH: EVQLVESGGGLVQPSGSLRLSCAASGFNINRYYIHWVRQAPGKGLEWVGGITPNDGYTDYADSVEGRFTTSADTSKNTAYLQMNSLRAEDTAVYYCARGTWSWPSGHSYYLDYWGQGTLVTVSS VL: not shown | 0.025 nM | 74% | 93% | – |
| SRP1848-E03 (antibody, V domains shown) VH: EVQLVESGGGLAQPGGSLRLSCAASGFNIGNYYIHWVRQAPGKGLEWVGGITPRDGFTDYADSVKGRFTISADTSKNTAYLQVNSLRAEDTAVYYCARGSWSWPAGHSYYLDYWGQGTLVTVSS VL: not shown | 0.027 nM | 73% | 94% | 0.057 nM |
| SRP1848-D03 (antibody, V domains shown) VH: EVQLVESGGGVVQPGGSLRLSCAASGFNIRYFSIHWVRQAPGKGLEWVGDIFPNDGSTDYADSVKGRFTISADTSKNTAYLQMNSLRAEETAVYYCARGHWSWPSGYWYYLDYWGQGTLVTVSS VL: not shown | 0.038 nM | 76% | 98% | – |
| SRP1848-F11 (antibody, V domains shown) VH: EVQLVESGGGLVQPGGSLRLSCAASGFNISNNYIHWVRQAPGKGLEWVGGITPIDGNTDYADSVKGRFTISADTSMNTAYLQMNSLRAEDTAVYYCARGSWYWRAGYGYYLDYWGQGALVTVSS VL: not shown | 0.017 nM | 70% | 91% | 0.054 nM |
| SRP1848-G03 (antibody, V domains shown) VH: EVQLVESGGGLVQPGGSLRLSCAASGFNISTYYIHWVRQAPGKGLEWVGGITPSDGFTDYADSVKGRSTISADTSKNTAYLQMNSLRAEDTAVYYCARGSWSWPSGHGYFLDYWGQGTLVTVSS VL: not shown | 0.021 nM | 76% | 91% | 0.064 nM |
| SRP1848-H01 (antibody, V domains shown) VH: EVQLVESGGGLVQPGGSLRLSCAASGFNIRTQSIHWVRQAPGKGLEWIGDIFPIDGITDYADSVKGRFTISADTSKNTAYLQMNSLRAEDTAVYYCARGSWSWPSGMDYYLDYWGQGTLVTVSS VL: not shown | 0.016 nM | 67% | 96% | 0.049 nM |
| SRP1848-G01 (antibody, V domains shown) VH: EVQLVESGGGLVQPGGSLRLSCAASGFNISRHSIHWVRQAPGKGLEWVGWIAPNDGSTDYADSVKGRFTISADTSKNTAYLQMNSLRAEDTAVYYCARGSWAWRSGYSYFLDYWGQGTLVTVSS VL: not shown | 0.022 nM | 66% | 91% | 0.07 nM |
| SRP1848-A02 (antibody, V domains shown) VH: EVQLVESGGGLVQPGGSLRLSCAASGFNISGFRIHWVRQAPGKGLEWVAGIYPESGATYYADSVKGRFTISADTSKNTAYLQMNSLRAEDTAVYYCARHLYVWDWVLDHVLDYWGQGTLVTVSS VL: not shown | 0.039 nM | 71% | 94% | 0.028 nM |
| SRP1848-G04 (antibody, V domains shown) VH: EVQLVESGGGLVQPGGSLRLSCAASGFNIHSTDIHWVRQAPGKGLEWVAYITPAGGATFYADSVKGRFTISADTSKNTAYLQMNSLRAEDTAVYYCARYPYWFAGYMDYWGQGTLVTVSS VL: not shown | 0.016 nM | 75% | 92% | 0.051 nM |
| SRP1848-G09 (antibody, V domains shown) VH: EVQLVESGGGLVQPGGSLRLSCAASGFNIRGTDIHWVRQAPGKGLEWVAYITPAGGATFYADSVKGRFTISADTSKNTAYLQMNSLRAEDTAVYYCARHEYWFSGYMDYWGQGTLVTVSS VL: not shown | 0.036 nM | 83% | 97% | 0.073 nM |
| SRP1848-G11 (antibody, V domains shown) VH: EVQLVESGGGLVQPGGSLRLSCAASGFNISSTDIHWVRQAPGKGLEWVAYITPAGGATWYADSVKGRFTISADTSKNTAYLQMNSLRAEDTAVYYCARYPYWFSGYMDYWGQGTLVTVSS VL: not shown | 0.023 nM | 84% | 97% | 0.04 nM |
| SRP1848-G06 (antibody, V domains shown) VH: EVQLVESGGGLVQPGGSLRLSCAASGFNIRSTDIHWVRQAPGKGLEWVAYITPAGGATYYADNVKGRFTISADTSKNTAYLQMNSLRAEDTAVYYCARQPYWFAGYMDYWGQGTLVTVSS VL: not shown | 0.026 nM | 81% | 96% | 0.057 nM |
| SRP1848-G07 (antibody, V domains shown) VH: EVQLVESGGGLVQPGGSLRLSCAASGFNIHSTDIHWVRQAPGKGLEWVAYITPAGGATWYADSVKGRFTISADTSKNTAYLQMNSLRAEDTAVYYCARYPFWFAGYMDYWGQGTLVTVSS VL: not shown | 0.038 nM | 78% | 94% | 0.058 nM |
| SRP1848-G10 (antibody, V domains shown) VH: EVQLVESGGGLVQPGSSLRLSCAASGFNIRSTDIHWVRQAPGKGLEWVAYITPAGGATYYADSVKGRFTISADTSKNTAYLQMNSLRAEDTAVYYCARYPYWFAGYIDYWGQGTLVTVSS VL: not shown | 0.019 nM | 79% | 97% | 0.046 nM |

Biological target: T1, human folate receptor alpha (hFOLR1) on cells (human, UniProt P15328 25-234)
Experiment: cell-based or functional assay

T1 sequence (P15328 25-234 limits assumed): as the sequence (P15328 25-234 limits assumed) above

| Binder | Igrov 2° Antibody Cell Killing, Nb-SC239, EC50 | Igrov 2° Antibody Cell Killing, Nb-SC239, span |
| --- | --- | --- |
| SRP2060-E10 (antibody, V domains shown) VH: EVQLLESGGGLVQPGGSLRLSCAFSGFSLSTFGMGVGWVRQAPGKGLEWVSHIWWDDDKYYHPALKGRFTISKDNSKNTVYLQMNSLRAEDTAVYYCGRNHFPHYYGSSHWYFNVWGQGTTVTVSS VL: EIVMTQSPATLSLSPGERATLSCKASQDINSYLSWYQQKPGQAPRLLIYRANRLVDGIPARFSGSGSGTDYTLTISSLEPEDFAVYYCLQYDEFPYTFGGGTKVEIK | 0.061 nM | 68% |
| SRP2060-B01 (antibody, V domains shown) VH: EVQLLESGGGLVQPGGSLRLSCALSGFSLSTFGMGVGWVRQATGKGLEWVSHIWWDDDKYYHPALKGRFTISKDNSKNTVHLQMNSLRAEDTAVYYCGRNHFPHYYGSSHWYFNVWGQGTTVTVSS VL: DIQMTQSPSTLSASVGDRVTITCKASQDINSYLSWYQQKPGKAPKLLIYRANRLVDGVPSRFSGSGSGTEFTLTISSLQPDDFATYYCLQYDEFPYTFGGGTKVEIK | 0.045 nM | 76% |
| SRP2060-E05 (antibody, V domains shown) VH: EVQLLESGGGLVQPGGSLRLSCAFSGFSLSTFGMGVGWVRQAPGKGLEWVSHIWWDDDKYYHPALKGRFTVSKDNSKNTVYLQMNSLRAEDTAVYYCGRNHFPHYYGSSHWYFNVWGQGTTVTVSS VL: EIVMTQSPATLSLSPGERATLSCKASQDINSYLSWYQQKPGQAPRLLIYRANRLVDGIPARFSGSGSGTDYTLTISSLEPEDFAVYYCLQYDEFPYTFGGGTKVEIK | 0.22 nM | 71% |
| SRP2060-A06 (antibody, V domains shown) VH: EVQLLESGGGLVQPGGSLRLSCAFSGFSLSTFGMGVGWVRQAPGKGLEWVGHIWWDDDKYYYPALKGRFTISKDNSKNTVYLQMNSLRAEDTAVYYCGRNHFPHYYGSSHWYFDVWGQGTTVTVSS VL: DIQMTQSPSTLSASVGDRVTITCKASQDINSYLSWYQQKPGKAPKLLIYRANRLVDGVPSRFSGSGSGTEFTLTISSLQPDDFATYYCLQYDEFPYTFGGGTKVEIK | 0.013 nM | 66% |

Biological target: Human folate receptor alpha (hFOLR1) (human, UniProt P15328 25-234)
Experiment: cell-based or functional assay

Chain of Human folate receptor alpha (hFOLR1) (P15328 25-234 limits assumed): as the sequence (P15328 25-234 limits assumed) above

| Binder | Cell Killing (Igrov1) EC50 | Cell Killing (Igrov1) Span |
| --- | --- | --- |
| ADC Molecule 20 (antibody 1848-H01, Y180/F404, Conjugate Q) (antibody, V domains shown, non-natural amino acid (pAMF) at heavy chain constant sites HC-Y180 and HC-F404 (EU numbering), each conjugated to cleavable (ValAla) hemiasterlin linker-drug (Conjugate Q); DAR 3.81) VH: EVQLVESGGGLVQPGGSLRLSCAASGFNIRTQSIHWVRQAPGKGLEWIGDIFPIDGITDYADSVKGRFTISADTSKNTAYLQMNSLRAEDTAVYYCARGSWSWPSGMDYYLDYWGQGTLVTVSS VL: not shown | 0.13 nM | 70% |
| ADC Molecule 24 (antibody 1848-H01 V262E, Y180/F404, Conjugate Q) (antibody, V domains shown, non-natural amino acid (pAMF) at heavy chain constant sites HC-Y180 and HC-F404 (EU numbering), each conjugated to cleavable (ValAla) hemiasterlin linker-drug (Conjugate Q); DAR 3.76) VH: EVQLVESGGGLVQPGGSLRLSCAASGFNIRTQSIHWVRQAPGKGLEWIGDIFPIDGITDYADSVKGRFTISADTSKNTAYLQMNSLRAEDTAVYYCARGSWSWPSGMDYYLDYWGQGTLVTVSS VL: not shown | 0.19 nM | 56% |
| ADC Molecule 4 (antibody 1848-H01, Y180/F404, Conjugate P) (antibody, V domains shown, non-natural amino acid (para-azidomethyl-L-phenylalanine, pAMF) at heavy chain constant sites HC-Y180 and HC-F404 (EU numbering), each conjugated to cleavable hemiasterlin linker-drug (Conjugate P); DAR 3.73) VH: EVQLVESGGGLVQPGGSLRLSCAASGFNIRTQSIHWVRQAPGKGLEWIGDIFPIDGITDYADSVKGRFTISADTSKNTAYLQMNSLRAEDTAVYYCARGSWSWPSGMDYYLDYWGQGTLVTVSS VL: not shown | 0.083 nM | 80% |
| ADC Molecule 23 (antibody 1848-H01 V262E, Y180/F404, Conjugate P) (antibody, V domains shown, non-natural amino acid (pAMF) at heavy chain constant sites HC-Y180 and HC-F404 (EU numbering), each conjugated to cleavable hemiasterlin linker-drug (Conjugate P); DAR 3.57) VH: EVQLVESGGGLVQPGGSLRLSCAASGFNIRTQSIHWVRQAPGKGLEWIGDIFPIDGITDYADSVKGRFTISADTSKNTAYLQMNSLRAEDTAVYYCARGSWSWPSGMDYYLDYWGQGTLVTVSS VL: not shown | 0.088 nM | 72% |

Biological target: T1, human folate receptor alpha (hFOLR1) on …
Experiment: cell-based or functional assay
Remark: another data set of the same source

| Binder | cytotoxic activity on Igrov1 cells in the presence of 0.5 µM un-conjugated 1848-H01, EC50 | cytotoxic activity on OVCAR3 cells in the presence of 0.5 µM un-conjugated 1848-H01, EC50 |
| --- | --- | --- |
| ADC Molecule 4 (antibody, V domains shown, non-natural amino acids at HC-Y180 and HC-F404 (constant region, outside this VH entry) linked to cleavable hemiasterlin linker-drug (Conjugate P), DAR about 3.7-3.8) VH: EVQLVESGGGLVQPGGSLRLSCAASGFNIRTQSIHWVRQAPGKGLEWIGDIFPIDGITDYADSVKGRFTISADTSKNTAYLQMNSLRAEDTAVYYCARGSWSWPSGMDYYLDYWGQGTLVTVSS VL: not shown | > 33 nM | > 33 nM |
